Measured values as given in the Human Domainome abundance scans (Beltran et al. 2025).
± gives the uncertainty stated by the source.

Experiment: abundance fitness (aPCA) (normalised: wild type 0, dead -1); higher = more abundant; growth selection in yeast, the domain comes from the species named
Details: Homo sapiens
Substance “Lipoamide acyltransferase component of branched-chain alpha-keto acid dehydrogenase complex, mitochondrial D197K, P11182” has an abundance fitness of -0.23 ± 0.048. “Lipoamide acyltransferase component of branched-chain alpha-keto acid dehydrogenase complex, mitochondrial V192K, P11182” gave an abundance fitness of 0.062 ± 0.046. Work on “Lipoamide acyltransferase component of branched-chain alpha-keto acid dehydrogenase complex, mitochondrial G195T, P11182” yielded an abundance fitness of -0.587 ± 0.066. Work on “Lipoamide acyltransferase component of branched-chain alpha-keto acid dehydrogenase complex, mitochondrial R178N, P11182” yielded an abundance fitness of -0.241 ± 0.071. With “Lipoamide acyltransferase component of branched-chain alpha-keto acid dehydrogenase complex, mitochondrial G198T, P11182” the abundance fitness was -0.647 ± 0.078. In the case of “Lipoamide acyltransferase component of branched-chain alpha-keto acid dehydrogenase complex, mitochondrial R179N, P11182”, the abundance fitness is reported as -0.156 ± 0.079. In the case of “Lipoamide acyltransferase component of branched-chain alpha-keto acid dehydrogenase complex, mitochondrial Q212W, P11182”, the abundance fitness is reported as -0.218 ± 0.046. In the case of “Lipoamide acyltransferase component of branched-chain alpha-keto acid dehydrogenase complex, mitochondrial Q212G, P11182”, the abundance fitness is reported as 0.023 ± 0.034. Substance “Lipoamide acyltransferase component of branched-chain alpha-keto acid dehydrogenase complex, mitochondrial I186A, P11182” has an abundance fitness of -0.555 ± 0.044. Substance “Lipoamide acyltransferase component of branched-chain alpha-keto acid dehydrogenase complex, mitochondrial N185H, P11182” has an abundance fitness of -0.164 ± 0.16. Substance “Lipoamide acyltransferase component of branched-chain alpha-keto acid dehydrogenase complex, mitochondrial R179G, P11182” has an abundance fitness of -0.257 ± 0.038. In the case of “Lipoamide acyltransferase component of branched-chain alpha-keto acid dehydrogenase complex, mitochondrial K187W, P11182”, the abundance fitness is reported as -0.538 ± 0.05. Substance “Lipoamide acyltransferase component of branched-chain alpha-keto acid dehydrogenase complex, mitochondrial P175S, P11182” has an abundance fitness of -0.127 ± 0.044. “Lipoamide acyltransferase component of branched-chain alpha-keto acid dehydrogenase complex, mitochondrial K187N, P11182” gave an abundance fitness of -0.026 ± 0.072. Work on “Lipoamide acyltransferase component of branched-chain alpha-keto acid dehydrogenase complex, mitochondrial K187G, P11182” yielded an abundance fitness of -0.304 ± 0.036. For “Lipoamide acyltransferase component of branched-chain alpha-keto acid dehydrogenase complex, mitochondrial G195D, P11182”, the abundance fitness was -0.516 ± 0.12. For “Lipoamide acyltransferase component of branched-chain alpha-keto acid dehydrogenase complex, mitochondrial V192Q, P11182”, the abundance fitness was -0.023 ± 0.046. “Lipoamide acyltransferase component of branched-chain alpha-keto acid dehydrogenase complex, mitochondrial R199E, P11182” showed an abundance fitness of 0.088 ± 0.048. “Lipoamide acyltransferase component of branched-chain alpha-keto acid dehydrogenase complex, mitochondrial S194G, P11182” showed an abundance fitness of -0.319 ± 0.052. Substance “Lipoamide acyltransferase component of branched-chain alpha-keto acid dehydrogenase complex, mitochondrial T171N, P11182” has an abundance fitness of -0.012 ± 0.058. Substance “Lipoamide acyltransferase component of branched-chain alpha-keto acid dehydrogenase complex, mitochondrial N207P, P11182” has an abundance fitness of -0.199 ± 0.051. Substance “Lipoamide acyltransferase component of branched-chain alpha-keto acid dehydrogenase complex, mitochondrial D197E, P11182” has an abundance fitness of -0.098 ± 0.05. Substance “Lipoamide acyltransferase component of branched-chain alpha-keto acid dehydrogenase complex, mitochondrial P175L, P11182” has an abundance fitness of -0.119 ± 0.056. “Lipoamide acyltransferase component of branched-chain alpha-keto acid dehydrogenase complex, mitochondrial Q212C, P11182” gave an abundance fitness of -0.047 ± 0.052. Substance “Lipoamide acyltransferase component of branched-chain alpha-keto acid dehydrogenase complex, mitochondrial P175Y, P11182” has an abundance fitness of -0.24 ± 0.066. Substance “Lipoamide acyltransferase component of branched-chain alpha-keto acid dehydrogenase complex, mitochondrial L188S, P11182” has an abundance fitness of -0.656 ± 0.059. With “Lipoamide acyltransferase component of branched-chain alpha-keto acid dehydrogenase complex, mitochondrial N184R, P11182” the abundance fitness was -0.097 ± 0.072. “Lipoamide acyltransferase component of branched-chain alpha-keto acid dehydrogenase complex, mitochondrial Q212N, P11182” showed an abundance fitness of 0.124 ± 0.14. “Lipoamide acyltransferase component of branched-chain alpha-keto acid dehydrogenase complex, mitochondrial T174H, P11182” showed an abundance fitness of -0.206 ± 0.069. With “Lipoamide acyltransferase component of branched-chain alpha-keto acid dehydrogenase complex, mitochondrial E190I, P11182” the abundance fitness was -0.609 ± 0.08. Work on “Lipoamide acyltransferase component of branched-chain alpha-keto acid dehydrogenase complex, mitochondrial S189P, P11182” yielded an abundance fitness of -0.232 ± 0.068. For “Lipoamide acyltransferase component of branched-chain alpha-keto acid dehydrogenase complex, mitochondrial I205E, P11182”, the abundance fitness was -0.289 ± 0.047. Work on “Lipoamide acyltransferase component of branched-chain alpha-keto acid dehydrogenase complex, mitochondrial G193Q, P11182” yielded an abundance fitness of -0.573 ± 0.061. Work on “Lipoamide acyltransferase component of branched-chain alpha-keto acid dehydrogenase complex, mitochondrial R179A, P11182” yielded an abundance fitness of -0.048 ± 0.042. Work on “Lipoamide acyltransferase component of branched-chain alpha-keto acid dehydrogenase complex, mitochondrial K211Y, P11182” yielded an abundance fitness of -0.157 ± 0.1. For “Lipoamide acyltransferase component of branched-chain alpha-keto acid dehydrogenase complex, mitochondrial L188W, P11182”, the abundance fitness was -0.513 ± 0.048. Work on “Lipoamide acyltransferase component of branched-chain alpha-keto acid dehydrogenase complex, mitochondrial G193E, P11182” yielded an abundance fitness of -0.706 ± 0.067. For “Lipoamide acyltransferase component of branched-chain alpha-keto acid dehydrogenase complex, mitochondrial I205L, P11182”, the abundance fitness was -0.086 ± 0.037. Substance “Lipoamide acyltransferase component of branched-chain alpha-keto acid dehydrogenase complex, mitochondrial Y208E, P11182” has an abundance fitness of -0.032 ± 0.041. For “Lipoamide acyltransferase component of branched-chain alpha-keto acid dehydrogenase complex, mitochondrial D204S, P11182”, the abundance fitness was -0.83 ± 0.068. Work on “Lipoamide acyltransferase component of branched-chain alpha-keto acid dehydrogenase complex, mitochondrial I200W, P11182” yielded an abundance fitness of -0.852 ± 0.063. In the case of “Lipoamide acyltransferase component of branched-chain alpha-keto acid dehydrogenase complex, mitochondrial K187D, P11182”, the abundance fitness is reported as 0.009 ± 0.048. For “Lipoamide acyltransferase component of branched-chain alpha-keto acid dehydrogenase complex, mitochondrial I205K, P11182”, the abundance fitness was -0.302 ± 0.052. “Lipoamide acyltransferase component of branched-chain alpha-keto acid dehydrogenase complex, mitochondrial R199T, P11182” gave an abundance fitness of -0.006 ± 0.062. Substance “Lipoamide acyltransferase component of branched-chain alpha-keto acid dehydrogenase complex, mitochondrial K202C, P11182” has an abundance fitness of -0.282 ± 0.086. Work on “Lipoamide acyltransferase component of branched-chain alpha-keto acid dehydrogenase complex, mitochondrial K187I, P11182” yielded an abundance fitness of -0.078 ± 0.076. “Lipoamide acyltransferase component of branched-chain alpha-keto acid dehydrogenase complex, mitochondrial T213H, P11182” gave an abundance fitness of -0.062 ± 0.058. Work on “Lipoamide acyltransferase component of branched-chain alpha-keto acid dehydrogenase complex, mitochondrial R178L, P11182” yielded an abundance fitness of -0.165 ± 0.038.
